According to article doi:10.1101/2025.08.28.672883 (2025):
Where “and” joins values, the source holds several entries; their conditions need not be identical. Equal entries are not always repeated.

Target: SARS-CoV-2 spike receptor-binding domain, prototype (RBD-WT) (SARS-CoV-2, UniProt P0DTC2 333-528)
Test: BLI

Binder | Kd
VYD222 Fab (Fab, V domains shown) VH: EVQLVESGGGLVKPGGSLRLSCAASGFTFGSYEMNWVRQAPGKGLEWVSSISEDGYSTYYPDSLKGRFTISRDSAKNSLYLQMNSLRADDTAVYYCARDFGGDTAWAGTGFTYWGQGTLVTVSS VL: QSVLTQPPSVSGAPGQRITISCTGSSSNIGAGYDVHWYQQLPGTAPKLLIYGSSSRNYGVPDRFSGSKSGTSASLAITGLQAEDEADYYCQSYDSDLGVLYTFGTGTKVTVL | 5.4 nM and 5 nM
ADI-77310 Fab (Fab, V domains shown) VH: EVQLVESGGGLVKPGGSLRLSCAASGFTFGSYYMNWVRQAPGKGLEWVSSISEDGYSTYYPDSLKGRFTISRDSAKNSLYLQMNSLRADDTAVYYCARDFGGHTAWAGTGFTYWGQGTLVTVSS VL: QSVLTQPPSVSGAPGQRITISCTGSSSNIGAGYDVHWYQQLPGTAPKLLIYGSSSRNSGVPDRFSGSKSGTSASLAITGLQAEDEADYYCQSYDSDLSVLYTFGTGTKVTVL | 1 nM and 0.8 nM
